Among the data in PMC11480844 (2024) are ratio to parent values, retold here.

The chains are these.
B1: H2-Kb / Ed33 (parent complex)
chain 1: SQLAEENSWALSVHEGESVTVNCSYKTSITALQWYRQKSGKGPAQLILIRSNEREKRNGRLRATLDTSSQSSSLSITATRCEDTAVYFCATDHNNAGAKLTFGGGTRLTVRP
chain 2: DAGVTQTPRHEVAEKGQTIILKCEPVSGHNDLFWYRQTKIQGLELLSYFRSKSLMEDGGAFKDRFKAEMLNSSFSTLKIQPTEPKDSAVYLCASSLYTNQAPLFGEGTRLSVL
chain 3: not shown
chain 4: IQKTPQIQVYSRHPPENGKPNILNCYVTQFHPPHIEIQMLKNGKKIPKVEMSDMSFSKDWSFYILAHTEFTPTETDTYACRVKHDSMAEPKTVYWDRDM
chain 5: SIINFEKL
B2: H2-Kb / Ed40 (parent complex)
chain 1: GDSVTQTEGPVTVSESESLIINCTYSATSIAYPNLFWYVRYPGEGLQLLLKVITAGQKGSSRGFEATYNKETTSFHLQKASVQESDSAVYYCALGDGYTGNYKYVFGAGTRLKVIA
chain 2: DSGVVQSPRHIIKEKGGRSVLTCIPISGHSNVVWYQQTLGKELKFLIQHYEKVERDKGFLPSRFSVQQFDDYHSEMNMSALELEDSAMYFCASSGASAETLYFGSGTRLTVL
chain 3: not shown
chain 4: B1 chain 4
chain 5: SIINFEKL
Note: test concentration or dose not given here.

Variants of B1 are the subject of one test. Kind of test: % of reporter cells activated (NFAT-GFP), raw.
With chain 5 I3A, the ratio to parent turned out to be 1.03.

Consider chain 5 I3C, for which the ratio to parent amounted to 1.02.

Turning to chain 5 N4I, the ratio to parent was found to be 0.271.

For the variant chain 5 N4M, the ratio to parent is 0.00151.

chain 5 N4Y: the ratio to parent was 0.0163.

For the variant chain 5 N4V, the ratio to parent amounted to 0.181.

With chain 5 S1T, the ratio to parent was 0.61.

Turning to chain 5 E6L, the ratio to parent came out at 0.00458.

For chain 5 E6S, the ratio to parent amounted to 0.0699.

For the variant chain 5 F5M, the ratio to parent came to 1.09.

With chain 5 F5Y, the ratio to parent worked out at 1.04.

As for chain 5 F5L, the ratio to parent is 0.916.

Consider chain 5 I2S, for which the ratio to parent amounted to 0.691.

As to chain 5 I2W, the ratio to parent was found to be 0.738.

On to chain 5 I2M, for which the ratio to parent was found to be 1.08.

As to chain 5 L8V, the ratio to parent was 0.815.

Take chain 5 L8G: the ratio to parent was determined as 0.87.

As for chain 5 L8T, the ratio to parent worked out at 0.929.

chain 5 K7D: the ratio to parent came out at 0.0503.

With chain 5 K7L, the ratio to parent stood at 0.0519.

In the next test the parent is B2. Kind of test: % of reporter cells activated (NFAT-GFP), raw.
As to chain 5 F5R, the ratio to parent came out at 0.938.

For the variant chain 5 F5T, the ratio to parent was determined as 1.22.

Take chain 5 F5Y: the ratio to parent worked out at 1.11.

chain 5 F5Q: the ratio to parent was 0.601.

In the case of chain 5 F5M, the ratio to parent amounted to 0.856.

In the case of chain 5 F5V, the ratio to parent is 0.868.

For the variant chain 5 F5G, the ratio to parent amounted to 0.78.

Turning to chain 5 F5I, the ratio to parent stood at 0.615.

For the variant chain 5 F5N, the ratio to parent turned out to be 0.891.

In the case of chain 5 F5C, the ratio to parent turned out to be 1.01.

Turning to chain 5 F5D, the ratio to parent came out at 0.49.

Regarding chain 5 F5W, the ratio to parent was 1.02.

In the case of chain 5 F5L, the ratio to parent turned out to be 0.906.

In the case of chain 5 F5P, the ratio to parent worked out at 0.944.

Consider chain 5 F5H, for which the ratio to parent was 1.06.

For chain 5 F5K, the ratio to parent was 0.685.

chain 5 F5A: the ratio to parent amounted to 0.944.

Take chain 5 F5S: the ratio to parent was 1.09.

As for chain 5 I2C, the ratio to parent was determined as 1.02.

chain 5 I2L: the ratio to parent was 1.14.

As to chain 5 I2H, the ratio to parent worked out at 0.7.

With chain 5 I2Q, the ratio to parent was found to be 0.697.

Consider chain 5 I2K, for which the ratio to parent worked out at 0.968.

For chain 5 I2A, the ratio to parent came to 1.13.

Turning to chain 5 I2V, the ratio to parent came to 1.15.

In the case of chain 5 I2R, the ratio to parent was found to be 0.958.

With chain 5 I2W, the ratio to parent was found to be 0.654.

Turning to chain 5 I2E, the ratio to parent amounted to 0.869.

In the case of chain 5 I2T, the ratio to parent was determined as 1.18.

Regarding chain 5 I2F, the ratio to parent amounted to 1.

Consider chain 5 I2D, for which the ratio to parent came to 1.2.

On to chain 5 I2M, for which the ratio to parent amounted to 0.913.

On to chain 5 I2Y, for which the ratio to parent was determined as 0.834.

With chain 5 I2N, the ratio to parent worked out at 0.757.

For the variant chain 5 I2P, the ratio to parent came to 1.07.

With chain 5 I3F, the ratio to parent is 0.641.

In the case of chain 5 I3E, the ratio to parent was 0.545.

For chain 5 I3P, the ratio to parent is 0.601.

As for chain 5 I3K, the ratio to parent worked out at 0.791.

For the variant chain 5 I3H, the ratio to parent came to 0.67.

Take chain 5 I3L: the ratio to parent came to 0.895.

As for chain 5 I3D, the ratio to parent worked out at 0.166.

With chain 5 I3Q, the ratio to parent was determined as 0.329.

In the case of chain 5 I3S, the ratio to parent amounted to 0.789.

Consider chain 5 I3R, for which the ratio to parent was 0.207.

On to chain 5 I3W, for which the ratio to parent is 0.488.

With chain 5 I3A, the ratio to parent turned out to be 0.28.

As for chain 5 I3N, the ratio to parent was 0.534.

As to chain 5 I3M, the ratio to parent was 0.462.

On to chain 5 K7A, for which the ratio to parent is 0.343.

For the variant chain 5 K7S, the ratio to parent came out at 0.648.

On to chain 5 K7Y, for which the ratio to parent turned out to be 0.444.

chain 5 K7E: the ratio to parent was 0.00653.

chain 5 K7H: the ratio to parent was 0.754.

For the variant chain 5 K7F, the ratio to parent was determined as 0.0192.

For chain 5 K7G, the ratio to parent came out at 0.382.

Turning to chain 5 K7M, the ratio to parent stood at 0.0429.

For chain 5 K7W, the ratio to parent was determined as 0.644.

chain 5 K7P: the ratio to parent turned out to be 0.296.

Take chain 5 K7V: the ratio to parent turned out to be 0.224.

In the case of chain 5 K7D, the ratio to parent stood at 0.0102.

Regarding chain 5 K7C, the ratio to parent is 0.0448.

For the variant chain 5 K7I, the ratio to parent was determined as 0.165.

Regarding chain 5 K7Q, the ratio to parent is 0.121.

With chain 5 K7N, the ratio to parent turned out to be 0.163.

Take chain 5 L8S: the ratio to parent is 0.681.

Turning to chain 5 L8P, the ratio to parent is 0.651.

Consider chain 5 L8W, for which the ratio to parent worked out at 0.787.

Turning to chain 5 L8E, the ratio to parent stood at 0.612.

As to chain 5 L8N, the ratio to parent amounted to 0.645.

Regarding chain 5 L8K, the ratio to parent came to 0.816.

For the variant chain 5 L8M, the ratio to parent came out at 0.897.

Regarding chain 5 L8A, the ratio to parent is 0.816.

For the variant chain 5 L8I, the ratio to parent is 0.95.

For the variant chain 5 L8Y, the ratio to parent came out at 0.96.

In the case of chain 5 L8V, the ratio to parent stood at 0.831.

Regarding chain 5 L8Q, the ratio to parent was determined as 0.716.

Turning to chain 5 L8F, the ratio to parent came out at 0.993.

On to chain 5 L8D, for which the ratio to parent was 0.546.

With chain 5 L8R, the ratio to parent turned out to be 0.785.

As to chain 5 L8C, the ratio to parent came to 0.555.

Turning to chain 5 L8H, the ratio to parent came to 0.822.

For chain 5 S1V, the ratio to parent came out at 0.738.

In the case of chain 5 S1F, the ratio to parent stood at 0.765.

With chain 5 S1P, the ratio to parent was found to be 0.576.

Turning to chain 5 S1I, the ratio to parent is 0.597.

Turning to chain 5 S1T, the ratio to parent turned out to be 0.92.

As for chain 5 S1H, the ratio to parent came out at 0.914.

For chain 5 S1L, the ratio to parent came to 0.466.

With chain 5 S1A, the ratio to parent was 1.01.

In the case of chain 5 S1M, the ratio to parent came to 0.993.

chain 5 S1Y: the ratio to parent worked out at 0.977.

Take chain 5 S1C: the ratio to parent came to 0.615.

chain 5 S1N: the ratio to parent is 0.31.

As for chain 5 S1R, the ratio to parent was determined as 0.532.

Take chain 5 S1E: the ratio to parent is 0.432.

With chain 5 E6M, the ratio to parent was determined as 0.172.

Turning to chain 5 E6L, the ratio to parent came out at 0.11.

Consider chain 5 E6A, for which the ratio to parent stood at 0.445.

As for chain 5 E6D, the ratio to parent amounted to 0.844.

In the case of chain 5 E6T, the ratio to parent came to 0.0789.

Consider chain 5 E6Y, for which the ratio to parent is 0.0704.

Take chain 5 E6R: the ratio to parent worked out at 0.675.

With chain 5 E6K, the ratio to parent was found to be 0.634.

With chain 5 E6V, the ratio to parent was determined as 0.00511.

In the case of chain 5 E6F, the ratio to parent was found to be 0.0664.

As for chain 5 E6I, the ratio to parent stood at 0.00278.

On to chain 5 E6C, for which the ratio to parent came to 0.0158.

On to chain 5 E6N, for which the ratio to parent stood at 0.287.

For chain 5 E6P, the ratio to parent amounted to 0.164.

Turning to chain 5 E6W, the ratio to parent is 0.0475.

Consider chain 5 E6Q, for which the ratio to parent turned out to be 0.527.

chain 5 E6S: the ratio to parent was 0.162.

chain 5 N4D: the ratio to parent stood at 0.00665.

chain 5 N4M: the ratio to parent turned out to be 0.00232.

Regarding chain 5 N4Q, the ratio to parent turned out to be 0.00152.

Take chain 5 N4K: the ratio to parent was 0.0365.

Regarding chain 5 N4L, the ratio to parent was found to be 0.086.

As for chain 5 N4H, the ratio to parent was 0.0593.

Consider chain 5 N4R, for which the ratio to parent was 0.362.

Turning to chain 5 N4P, the ratio to parent was found to be 0.00321.

On to chain 5 N4F, for which the ratio to parent turned out to be 0.00938.

As to chain 5 N4G, the ratio to parent was determined as 0.0118.

As to chain 5 N4S, the ratio to parent was 0.0147.

Regarding chain 5 N4W, the ratio to parent was found to be 0.00287.

With chain 5 N4I, the ratio to parent came to 0.02.

As for chain 5 N4C, the ratio to parent was 0.0253.

Consider chain 5 N4V, for which the ratio to parent worked out at 0.00392.

For the variant chain 5 N4A, the ratio to parent stood at 0.0166.

In the case of chain 5 N4E, the ratio to parent came to 0.00154.
